Measured values published in article PMC9482650, “Quantitative fragmentomics allow affinity mapping of interactomes” (Nature Communications, 2022).

Assays:
Test in all cases: holdup assay
Set-up in all cases: key: below the threshold = too weak to quantify, mostly under pKd 3.1 to 4
[1] = target: T1, APBA1_1, Q02410
T1 sequence (Q02410 651-752, limits assumed, looked up): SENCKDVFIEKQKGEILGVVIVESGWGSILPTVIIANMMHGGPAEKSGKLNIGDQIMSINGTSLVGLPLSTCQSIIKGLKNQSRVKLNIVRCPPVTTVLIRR

[2] = target: T2, APBA2_2, Q99767
T2 sequence (Q99767 654-744, limits assumed, looked up): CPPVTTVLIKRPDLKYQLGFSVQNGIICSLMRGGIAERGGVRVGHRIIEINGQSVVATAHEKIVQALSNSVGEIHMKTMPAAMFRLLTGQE

[3] = target: T3, DFNB31_2, Q9P202
T3 sequence (Q9P202 274-371, limits assumed, looked up): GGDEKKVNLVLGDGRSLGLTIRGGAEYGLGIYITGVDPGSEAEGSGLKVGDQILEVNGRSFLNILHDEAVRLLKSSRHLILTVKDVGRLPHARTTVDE

[4] = target: T4, DFNB31_3, Q9P202
T4 sequence (Q9P202 811-907, limits assumed, looked up): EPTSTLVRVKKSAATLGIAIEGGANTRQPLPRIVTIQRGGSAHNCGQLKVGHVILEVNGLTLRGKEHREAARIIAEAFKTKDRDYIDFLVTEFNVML

[5] = target: DLG2_2, Q15700
Sequence of DLG2_2, Q15700 (Q15700 189-283): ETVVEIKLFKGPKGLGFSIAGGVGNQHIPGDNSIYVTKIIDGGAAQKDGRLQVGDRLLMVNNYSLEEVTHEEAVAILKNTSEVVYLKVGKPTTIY

[6] = target: T5, DLG3_1, Q92796
T5 sequence (Q92796 125-227, limits assumed, looked up): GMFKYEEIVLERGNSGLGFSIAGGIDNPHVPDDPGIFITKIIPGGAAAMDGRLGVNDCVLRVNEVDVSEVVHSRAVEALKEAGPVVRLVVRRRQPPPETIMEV

[7] = target: T6, FRMPD1, Q5SYB0
T6 sequence (Q5SYB0 52-145, limits assumed, looked up): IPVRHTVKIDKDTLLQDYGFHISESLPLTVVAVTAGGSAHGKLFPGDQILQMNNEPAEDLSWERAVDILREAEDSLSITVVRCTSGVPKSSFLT

[8] = target: FRMPD4, Q14CM0
Sequence of FRMPD4, Q14CM0 (Q14CM0 67-160): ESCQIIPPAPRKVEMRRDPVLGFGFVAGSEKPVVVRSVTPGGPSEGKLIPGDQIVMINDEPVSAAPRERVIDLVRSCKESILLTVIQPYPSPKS

[9] = target: GORASP2, Q9H8Y8
[10] = target: GRASP, Q7Z6J2
Sequence of GRASP, Q7Z6J2 (Q7Z6J2 96-193): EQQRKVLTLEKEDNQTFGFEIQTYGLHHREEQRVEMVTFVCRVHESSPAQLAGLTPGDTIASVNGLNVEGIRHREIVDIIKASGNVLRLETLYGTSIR

[11] = target: T7, GRIP1_2, Q9Y3R0
T7 sequence (Q9Y3R0 145-248, limits assumed, looked up): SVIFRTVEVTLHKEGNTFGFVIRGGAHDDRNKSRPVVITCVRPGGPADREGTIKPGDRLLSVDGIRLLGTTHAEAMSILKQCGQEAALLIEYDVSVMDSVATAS

[12] = target: GRIP2_7, Q9C0E4
Sequence of GRIP2_7, Q9C0E4 (Q9C0E4 934-1023): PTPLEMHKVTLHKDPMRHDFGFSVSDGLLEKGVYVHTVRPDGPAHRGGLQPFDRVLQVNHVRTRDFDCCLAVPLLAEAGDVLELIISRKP

[13] = target: HTRA1, Q92743
Sequence of HTRA1, Q92743 (Q92743 360-477): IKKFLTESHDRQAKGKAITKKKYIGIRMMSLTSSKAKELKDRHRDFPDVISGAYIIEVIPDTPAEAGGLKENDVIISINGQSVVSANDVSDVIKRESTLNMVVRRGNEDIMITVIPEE

[14] = target: T8, HTRA4, P83105
T8 sequence (P83105 378-476, limits assumed, looked up): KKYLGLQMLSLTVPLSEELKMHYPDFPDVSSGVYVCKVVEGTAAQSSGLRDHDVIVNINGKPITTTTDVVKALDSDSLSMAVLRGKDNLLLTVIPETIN

[15] = target: IL16_3, Q14005
Sequence of IL16_3, Q14005 (Q14005 1107-1207): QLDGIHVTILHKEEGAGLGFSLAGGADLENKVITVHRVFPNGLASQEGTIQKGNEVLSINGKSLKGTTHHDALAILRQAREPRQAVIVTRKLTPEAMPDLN

[16] = target: T9, LIN7A, O14910
T9 sequence (O14910 103-200, limits assumed, looked up): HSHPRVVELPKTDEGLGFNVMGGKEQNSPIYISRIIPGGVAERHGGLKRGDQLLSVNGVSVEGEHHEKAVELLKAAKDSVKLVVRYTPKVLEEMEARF

[17] = target: LNX1_2, Q8TBB1
Sequence of LNX1_2, Q8TBB1 (Q8TBB1 371-470): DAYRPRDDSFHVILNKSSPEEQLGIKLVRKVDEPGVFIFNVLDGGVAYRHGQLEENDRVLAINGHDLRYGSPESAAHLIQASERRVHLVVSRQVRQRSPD

[18] = target: MAGI1_1, Q96QZ7
Sequence of MAGI1_1, Q96QZ7 (Q96QZ7 1-106): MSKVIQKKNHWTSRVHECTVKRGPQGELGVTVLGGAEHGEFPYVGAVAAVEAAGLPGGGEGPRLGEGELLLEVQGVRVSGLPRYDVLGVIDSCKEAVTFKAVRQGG

[19] = target: MAGI2_4, Q86UL8
Sequence of MAGI2_4, Q86UL8 (Q86UL8 772-865): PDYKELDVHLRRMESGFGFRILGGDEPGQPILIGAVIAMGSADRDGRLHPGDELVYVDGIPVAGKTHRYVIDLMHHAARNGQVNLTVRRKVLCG

[20] = target: MAGI2_6, Q86UL8
Sequence of MAGI2_6, Q86UL8 (Q86UL8 1141-1229): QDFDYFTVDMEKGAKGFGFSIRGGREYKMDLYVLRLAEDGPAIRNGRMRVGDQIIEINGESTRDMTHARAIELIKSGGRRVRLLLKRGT

[21] = target: MAST2, Q6P0Q8
Sequence of MAST2, Q6P0Q8 (Q6P0Q8 1099-1202): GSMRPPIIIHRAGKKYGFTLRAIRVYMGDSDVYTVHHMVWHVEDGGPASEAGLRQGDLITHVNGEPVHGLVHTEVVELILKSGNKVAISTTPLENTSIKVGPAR

[22] = target: T10, MPP2, Q14168
T10 sequence (Q14168 180-250, limits assumed, looked up): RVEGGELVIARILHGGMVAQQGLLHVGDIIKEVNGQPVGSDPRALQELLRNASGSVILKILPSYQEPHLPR

[23] = target: T11, PARD3B_1, Q8TEW8
T11 sequence (Q8TEW8 196-299, limits assumed, looked up): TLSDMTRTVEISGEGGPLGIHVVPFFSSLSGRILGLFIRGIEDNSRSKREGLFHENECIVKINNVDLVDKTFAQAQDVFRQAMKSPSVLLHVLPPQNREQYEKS

[24] = target: SCRIB_1, Q14160
Sequence of SCRIB_1, Q14160 (Q14160 718-814): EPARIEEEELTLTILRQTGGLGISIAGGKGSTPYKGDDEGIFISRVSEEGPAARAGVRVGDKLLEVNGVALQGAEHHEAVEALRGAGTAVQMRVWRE

[25] = target: T12, SNTA1, Q13424
T12 sequence (Q13424 82-180, limits assumed, looked up): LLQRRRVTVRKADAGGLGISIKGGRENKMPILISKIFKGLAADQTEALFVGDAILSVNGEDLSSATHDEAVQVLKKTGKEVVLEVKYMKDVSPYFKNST

[26] = plain residues with an end cap or a label only (N-terminal biotin on a linker: ado-ado)
[27] = plain residues with an end cap or a label only (N-terminal biotin on a linker: ttds)

TETASVCTKV [SLC23A1, Q9UHI7]
pKd [1, 26]: below the threshold
pKd [2, 26]: below the threshold
pKd [3, 26]: below the threshold
pKd [4, 26]: below the threshold
pKd [5, 26]: 3.99
pKd [6, 26]: below the threshold
pKd [7, 26]: below the threshold
pKd [8, 26]: below the threshold
pKd [9, 26]: 4.17
pKd [10, 26]: 4.43
pKd [11, 26]: below the threshold
pKd [12, 26]: below the threshold
pKd [13, 26]: 3.73
pKd [14, 26]: 4.15
pKd [15, 26]: below the threshold
pKd [16, 26]: below the threshold
pKd [17, 26]: below the threshold
pKd [18, 26]: below the threshold
pKd [19, 26]: 3.58
pKd [20, 26]: 3.69
pKd [21, 26]: 5.47
pKd [22, 26]: below the threshold
pKd [23, 26]: 3.61
pKd [24, 26]: 3.99
pKd [25, 26]: 4

RTRQRNETQV [HPV51-E6, P26554]
pKd [1, 27]: below the threshold
pKd [2, 27]: below the threshold
pKd [3, 27]: below the threshold
pKd [4, 27]: below the threshold
pKd [5, 27]: 4.97
pKd [6, 27]: 4.28
pKd [7, 27]: below the threshold
pKd [8, 27]: below the threshold
pKd [9, 27]: 4.65
pKd [10, 27]: below the threshold
pKd [11, 27]: 3.46
pKd [12, 27]: 3.48
pKd [13, 27]: below the threshold
pKd [14, 27]: below the threshold
pKd [15, 27]: below the threshold
pKd [16, 27]: below the threshold
pKd [17, 27]: below the threshold
pKd [18, 27]: below the threshold
pKd [19, 27]: 4.4
pKd [20, 27]: below the threshold
pKd [21, 27]: 5.27
pKd [22, 27]: below the threshold
pKd [23, 27]: below the threshold
pKd [24, 27]: 4.56
pKd [25, 27]: 4.23

DPRNTQTSQI [ABRAXAS2, Q15018]
pKd [1, 27]: below the threshold
pKd [2, 27]: below the threshold
pKd [3, 27]: 3.62
pKd [4, 27]: 3.67
pKd [5, 27]: below the threshold
pKd [6, 27]: 3.56
pKd [7, 27]: below the threshold
pKd [8, 27]: below the threshold
pKd [9, 27]: below the threshold
pKd [10, 27]: 3.95
pKd [11, 27]: 3.57
pKd [12, 27]: 3.55
pKd [13, 27]: 3.64
pKd [14, 27]: 3.48
pKd [15, 27]: below the threshold
pKd [16, 27]: below the threshold
pKd [17, 27]: below the threshold
pKd [18, 27]: below the threshold
pKd [19, 27]: below the threshold
pKd [20, 27]: below the threshold
pKd [21, 27]: 4.55
pKd [22, 27]: below the threshold
pKd [23, 27]: 3.69
pKd [24, 27]: 4.02
pKd [25, 27]: below the threshold

LCALPKVTTV [AGMAT, Q9BSE5]
pKd [1, 27]: below the threshold
pKd [2, 27]: below the threshold
pKd [3, 27]: 3.77
pKd [4, 27]: 3.69
pKd [5, 27]: 5.35
pKd [6, 27]: 4.27
pKd [7, 27]: below the threshold
pKd [8, 27]: below the threshold
pKd [9, 27]: 5.18
pKd [10, 27]: 4.47
pKd [11, 27]: below the threshold
pKd [12, 27]: below the threshold
pKd [13, 27]: 4.75
pKd [14, 27]: 4.66
pKd [15, 27]: below the threshold
pKd [16, 27]: 3.64
pKd [17, 27]: 4.42
pKd [18, 27]: below the threshold
pKd [19, 27]: 4.55
pKd [20, 27]: 4.64
pKd [21, 27]: 4.88
pKd [22, 27]: below the threshold
pKd [23, 27]: below the threshold
pKd [24, 27]: 4.39
pKd [25, 27]: 4.81
